From patent US9707281B2, “Pharmaceutical compositions and methods for digesting atherosclerotic plaques” (Northwestern University, priority 2010, dated 2017)

System: Human arterial plaque samples
Experiment: in vitro dissolution and digestion of atherosclerotic plaque specimens (percent reduction of plaque weight)
Settings: EDTA 0.5-2 mg/ml, β-cyclodextrin 1-100 mMol, tPA 0.5-2 mg/ml, p<0.05
Method: Atherosclerotic plaques from surgical endarterectomies were obtained from various anatomic sites. All experiments were performed by cutting a given plaque into equal parts by weight then exposing them to various agents alone and in combination to determine the most optimal digestion solution. The optimal concentration and conditions for plaque dissolution and digestion were determined for ethylenediaminetetraacetic acid (EDTA), β-cyclodextrin, tPA, collagenase type I, III, IV, and V. Weights of each specimen were obtained prior to exposure of each solution and at different time points to determine percent of digested versus undigested plaque. Additional variables that were assessed and optimized include: 1) different combinations of EDTA, β-cyclodextrin, and the collagenases, 2) temperature, 3) pH, and 4) agitation.
Atherosclerotic plaques were obtained from patients undergoing endarterectomies. The optimal concentration and conditions for plaque dissolution and digestion were determined for ethylenediaminetetraacetic acid (EDTA), β-cyclodextrin, and collagenase type I, III, IV, and V. Variables that were assessed included: 1) combination of different agents, 2) time, 3) temperature, 4) pH, and 5) agitation. Weight of each specimen was measured at different time points to determine percent of undigested plaque. […]

B1: tPA: tissue plasminogen activator (protein, UniProt P00750 36-562, looked up)
Tissue-type plasminogen …: SYQVICRDEKTQMIYQQHQSWLRPVLRSNRVEYCWCNSGRAQCHSVPVKSCSEPRCFNGGTCQQALYFSDFVCQCPEGFAGKCCEIDTRATCYEDQGISYRGTWSTAESGAECTNWNSSALAQKPYSGRRPDAIRLGLGNHNYCRNPDRDSKPWCYVFKAGKYSSEFCSTPACSEGNSDCYFGNGSAYRGTHSLTESGASCLPWNSMILIGKVYTAQNPSAQALGLGKHNYCRNPDGDAKPWCHVLKNRRLTWEYCDVPSCSTCGLRQYSQPQFRIKGGLFADIASHPWQAAIFAKHRRSPGERFLCGGILISSCWILSAAHCFQERFPPHHLTVILGRTYRVVPGEEEQKFEVEKYIVHKEFDDDTYDNDIALLQLKSDSSRCAQESSVVRTVCLPPADLQLPDWTECELSGYGKHEALSPFYSERLKEAHVRLYPSSRCTSQHLLNRTVTDNMLCAGDTRSGGPQANLHDACQGDSGGPLVCLNDGRMTLVGIISWGLGCGQKDVPGVYTKVTNYLDWIRDNMRP
reduction in plaque weight, agent alone: 20%
